One experiment has as its system Notch2 signaling. The experiment in a line: Co-culture Notch reporter assay, Notch2 signaling (U87MG cells + Jag1 cells). It counts as cell-based. As for the experimental part:
NIH-3T3 cells stably transfected with Jag1 were used to induce Notch signaling in NIH-3T3 cells stably transfected with Notch1 (except for “−Jag1”, which used untransfected NIH-3T3 cells in place of the Jag1-expressing cells). […] NIH-3T3 cells stably transfected with Jag1 were used to induce Notch signaling in U87MG cells, which express high levels of Notch2. The assay was performed as described in (A). […] The assay was performed as in (A) except that the receptor-expressing cells were generated by transient transfection of plasmids expressing the indicated Notch1 receptors.
Co-culture assay in U87MG cells, as described in FIG. 10B.
NIH-3T3 cells either stably transfected with Notch 1 or transiently transfected with plasmids containing other Notch receptors were co-transfected with a Notch-responsive TP-1 (12× CSL) Firefly luciferase reporter and a constitutively active Renilla Luciferase reporter (pRL-CMV, Promega) to control for transfection efficiency. Cells are allowed to recover from the transfection from 6 hours to overnight. Treatments of antibodies and NIH-3T3 cells stably transfected with ligand are used to stimulate the receptor cells. After 20 hours, firefly and Renilla luciferase are measured with Dual Glo Luciferase Assay system (Promega). Eight replicates were analyzed for each condition by dividing the Firefly signal by the Renilla signal to control for transfection efficiency. The mean and standard deviation were calculated and values were normalized to calculated values for co-culture stimulated with NIH-3T3 cells without ligand transfected.

The test system of another experiment is Notch2 NRR. The experiment in a line: ELISA binding to purified Notch2 NRR proteins. To be noted: purified human or mouse protein, up to highest antibody concentration tested. The source says:
The N-myc-Notch transgenes were expressed under control of the inducible tet promoter; bottom row, control expression in the absence of induction with doxycycline (−Dox); top row, induced expression following addition of doxycycline (+Dox); note that the K1-CHO line endogenously expresses Notch2, which is detected by anti-NRR2 in the presence and absence of doxycycline (for example, compare panels 7 and 10).
Anti-Flag antibody was used to capture Flag-Tagged NRR protein from all four Notch receptors in a black walled, high binding plate (Greiner). NRR antibody and E25 control antibodies were bound to the NRR proteins and washed away with PBS. An Alkaline Phosphate conjugated anti-human (H+L) secondary antibody (Jackson ImmunoResearch) was used to detect bound anti-NRR and E25. Unbound secondary was washed away and AP was detected with PNPP substrate (Pierce).
On the technique in general: ELISA stands for enzyme-linked immunosorbent assay.

B1: anti-NRR2: affinity matured form of Antibody D, phage library-derived human anti-Notch2 NRR monoclonal antibody (antibody, V domains shown)
VH: EVQLVESGGGLVQPGGSLRLSCAASGYTFSSYGMSWVRQAPGKGLEWVSYIYPYSGATYYADSVKGRFTISADTSKNTAYLQMNSLRAEDTAVYYCARHSGYYRISSAMDVWGQGTLVTVSA
VL: DIQMTQSPSSLSASVGDRVTITCRASQNIKRFLAWYQQKPGKAPKLLIYGASTRESGVPSRFSGSGSGTDFTLTISSLQPEDFATYYCQQYYRSPHTFGQGTKVEIKR
Regarding B1, the “effect on Notch2 reporter signaling” value with Notch2 signaling (Jag1-induced, DAPT 5 μM) is “inhibition of Notch2 signaling”. Further, the “inhibition of signaling induced through Jag1, Jag2, D111 and D114” value in the experiment with Notch2 signaling (all Notch ligands tested) is listed as “inhibited signaling”. The “binding to Notch2 NRR proteins” value in the experiment on Notch2 NRR is reported as “bound specifically”.

These data come from patent US8404239B2, “Anti-Notch2 NRR antibodies” (Genentech, Inc., priority 2008, dated 2013).
